The target in assay [1] is [FeFe]-hydrogenase HydA1 from Chlamydomonas reinhardtii (C. reinhardtii).
Assay [2] deals with ferredoxin-NADP+ oxidoreductase (FNR) from Chlamydomonas reinhardtii (C. reinhardtii) (UniProt P53991).
Assay [3] has as its target [FeFe]-hydrogenase HydA2 from Chlamydomonas reinhardtii (C. reinhardtii).
The target of assay [4] is [FeFe]-hydrogenase HydA1 from Chlamydomonas reinhardtii (C. reinhardtii). The source holds these as a separate data set.
Assay [5] has as its target ferredoxin-NADP+ oxidoreductase (FNR) from Chlamydomonas reinhardtii (C. reinhardtii) (UniProt P53991). The source holds these as a separate data set.

Sequence of UniProt P53991 (P53991 36-354): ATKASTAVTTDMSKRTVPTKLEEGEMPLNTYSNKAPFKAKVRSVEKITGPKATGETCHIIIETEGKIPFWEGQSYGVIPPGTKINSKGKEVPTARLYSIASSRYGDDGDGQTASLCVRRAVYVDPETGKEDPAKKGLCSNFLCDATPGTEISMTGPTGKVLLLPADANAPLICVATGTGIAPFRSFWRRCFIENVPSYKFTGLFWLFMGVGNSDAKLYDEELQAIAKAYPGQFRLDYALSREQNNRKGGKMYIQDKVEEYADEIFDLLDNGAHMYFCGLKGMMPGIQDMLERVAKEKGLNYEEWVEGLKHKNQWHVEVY

In assay [1], “ferredoxin Fdx2 from Chlamydomonas reinhardtii (natural protein)” registered an H2 production rate of HydA1, 50 µM ferredoxin reduced with 10 mM sodium dithionite, against PetF (% of the rate with PetF) of 40. Also, the NADPH-dependent cytochrome c reduction, 40 nM FNR, 5 µM ferredoxin, initial reaction speed (µM cyt c × min^−1) in assay [2] was found to be 121. In addition, the H2 production rate of HydA2, 50 µM ferredoxin reduced with 10 mM sodium dithionite (µmol H2 × min^−1 × mg^−1) in assay [3] worked out at 12.6.

“ferredoxin Fdx3 from Chlamydomonas reinhardtii (natural protein)”: the light-dependent H2 production of HydA1 (50 nM, 10 µM ferredoxin) left in the presence of the competitor FNR (50 nM), against the rate without FNR in assay [4] came to 29%. The substance also registered an H2 production rate of HydA2, 50 µM ferredoxin reduced with 10 mM sodium dithionite, against PetF (% of the rate with PetF) in assay [3] of 10.

For the substance “ferredoxin Fdx7 from Chlamydomonas reinhardtii (natural protein)”, in assay [1], the H2 production rate of HydA1, 50 µM ferredoxin reduced with 10 mM sodium dithionite, against PetF (% of the rate with PetF) was determined as 14. For the same substance, the light-dependent H2 production of HydA1 (50 nM, 10 µM ferredoxin) left in the presence of the competitor FNR (50 nM), against the rate without FNR in assay [4] was 59%.

Consider “ferredoxin Fdx8 from Chlamydomonas reinhardtii (natural protein)”, for which, in assay [4], the light-dependent H2 production of HydA1 (50 nM, 10 µM ferredoxin) left in the presence of the competitor FNR (50 nM), against the rate without FNR is 52%.

Regarding “ferredoxin Fdx10 from Chlamydomonas reinhardtii (natural protein)”, the NADPH-dependent cytochrome c reduction, 40 nM FNR, 5 µM ferredoxin (µM cyt c × min^−1) in assay [5] was determined as 23.3. Also, in assay [4], the light-dependent H2 production of HydA1 (50 nM, 10 µM ferredoxin) left in the presence of the competitor FNR (50 nM), against the rate without FNR is 43%.

In assay [5], “ferredoxin Fdx11 from Chlamydomonas reinhardtii (natural protein)” registered an NADPH-dependent cytochrome c reduction, 40 nM FNR, 5 µM ferredoxin (µM cyt c × min^−1) of 34.4.

For “photosynthetic ferredoxin PetF from Chlamydomonas reinhardtii (from UniProt P07839 33-126) (natural protein)”, the H2 production rate of HydA1, 50 µM ferredoxin reduced with 10 mM sodium dithionite (µmol H2 × min^−1 × mg^−1) in assay [1] stood at 225. The substance also gave an NADPH-dependent cytochrome c reduction, 40 nM FNR, 5 µM ferredoxin, initial reaction speed (µM cyt c × min^−1) in assay [2] of 84.2. For the same substance, the H2 production rate of HydA2, 50 µM ferredoxin reduced with 10 mM sodium dithionite (µmol H2 × min^−1 × mg^−1) in assay [3] was determined as 63.9.

(Values after PMC9569306.)
